According to the DeepSol protein solubility set:

experiment: soluble on expression in E. coli; label from the status in PepcDB or PDB records

Soluble on expression in E. coli, not soluble:
MPATPVPPVTMPPVPPVGFPPVTAPPGLHPPPPVPPVPVPTLPVTSEHKTAHDACIKRLEQLEIPPDPKIYPSPTEPGTFGSVTEVLTNVFGVEVHKTSNFYQYSVHITAELSSKKEVTFTKKGKEDFIVHDRHEKCSAILFHALNRFEDFFKSSENCIIYDGQSILFTSMNLFEGIPTGKIKTKVFQINGADTNLKDLMVLPCIKLEVFPTKNPVVNFSLEDIGRRTSDSNIESVNMAYKQILDLAMSQYAIRETSKCVVFEHGKMFFINPLQEGYAPCDIVEVGDGKQMKPGLKKTLQFIEGPYGRNQNNPSIVIDGMKVAFHMEQLVFQKLSSITSNLANGITGSERERCAAVIKGLDCHSNYRGRTRHHKIESIHHEGAATARFELEGGGTCTVATYFKDKYKIQLRYPNANLIVCKERGALNFYPMELITISPNQRVRITQQTSSQSQRTTKESAVLPDIRQRLIMTGKIAAKITAENEVLGKMGVTVCDEPLVVKGRNLPAIRLASFETGEHLINPRDCKWRPQRYNRSAVAPKVWALYGVGSPGSQMNRDVMRRFCDEFMNMSRSKGILFPPPGDVNLLTPDAIENRLREAANAGCTFVLCITEDNITCLHQKYKFIEHHTQMIVQDMKLSKALSVVNASKKLTLENVINKTNVKLGGSNYVYLDTKNFLQEHLIIGVGISSPPPGTKYIMESRGILNPTIVGFAYNGNGKQEFSGDFVLNAAGQETIAPIEDIVSYSIKGYKKFHDGKAPKRITIYRSGSSEGNHGPIISYEVPLARVAMRNFSPDTQLLYIVVSKEHTYRFFKKESGGSSSGGSNSAGASNSGTLTSAPPKPWELNIGPGLTVDYGVTNPACKQFFLNSHMTLQGSAKTPLYTVLADDRNIGMSALEEFTFNLCHLHQIVGLPTSIPTPLYVANEYAKRGRNLWNEAINANEIPEVTGPESARLKKMTDGISYMGSGDMIDRRVNA, MPAVESNMFPLGKQAPPFALTNVIDGNVVRLEDVKSDVATVIMFICNHCPFVKHVQHELVRLANDYMPKGVSFVAINSNDAEQYPEDSPENMKKVAKELGYPFPYLYDETQEVAKAYDAACTPDFYIFDRELKCVYRGQLDDSRPNNGIPVTGESIRAALDALLEGRPVPEKQKPSIGCSIKWKPSA, MPDAQILSTHEHGVVVALGDIRTADSITTVVAGVGSANPTQWLNYVERAQHIQQATGGAAVAWLGYNAPANVAAAAAQTPAQQGASQLQKFQKELRTLNPKARLMVFGHSYGSVVAGHAVAHGLDADTFIVAGSPGVPPNPQLHSPNPRLISVLGSHDIIGLTGTNTVAAHGIDPSALSAQDAGFERWGVAGGHESYFTDKRLEHHHHHH, MPDHLQPTLFQDAGKTQASDTFQELLASIAARPKYLPDWPESHRALPNEILRSALFNCRNRNLPRMFLKEVEIAVIGDGQVIYRGEELRQDDELVWMHLMHLIKKSPLGECVEFTPYSFIKALGWPIKGQNYDRLRNCLSRMQATALRIQSKRLHSFVSISLIQKFLSRNERNESLTRWQVWVGKEMQLLFDEEFLTRVMWETRRSLPDGIASKLFGYWASHRKPYPVKVETLLKLCGSGMQTKHFKIELKRALDLLKQSGFLEAWELKDELVVVVRRH, MPDISIILLGNYAPDQVIHARLLFMRMEQVPGGHHLQILQFRFTIPFRQADFCSLDQSDVMCSETHCYYLMNLKVGAFFETAQNILMIRWLFS
